Target: protein sHIP (streptococcal Histidine-rich glycoprotein Interacting Protein), sHIPwt (S. pyogenes)
Assay: AUC; sedimentation velocity, 20°C, 50000 rpm, 20 mM MES pH 5.5; c(S) distribution compared with theoretical sedimentation coefficients (HYDROPRO)

## protein sHIP (streptococcal Histidine-rich glycoprotein Interacting Protein), sHIPwt (natural protein)
  stoichiometry N: 4

Reference: paper PMC4742562, “Structure and Interactions of a Dimeric Variant of sHIP, a Novel Virulence Determinant of Streptococcus pyogenes” (Frontiers in Microbiology, 2016)
